In patent US20220175895A1 (ACADEMIA SINICA, published 2022):
One block for each binder: values may come before it.

Tests used:
[1] = biological target: Flag-VPS34 previously ubiquitinated in vitro by UBE3C, Q8NEB9
Rubicon = biological target: T1, Rubicon (UniProt Q92622 1-972, limits assumed); test: immunoprecipitation in 293T cells transfected with Flag-TRABID, fed or starved 2 h (FIG. 2R)
T1 sequence (looked up): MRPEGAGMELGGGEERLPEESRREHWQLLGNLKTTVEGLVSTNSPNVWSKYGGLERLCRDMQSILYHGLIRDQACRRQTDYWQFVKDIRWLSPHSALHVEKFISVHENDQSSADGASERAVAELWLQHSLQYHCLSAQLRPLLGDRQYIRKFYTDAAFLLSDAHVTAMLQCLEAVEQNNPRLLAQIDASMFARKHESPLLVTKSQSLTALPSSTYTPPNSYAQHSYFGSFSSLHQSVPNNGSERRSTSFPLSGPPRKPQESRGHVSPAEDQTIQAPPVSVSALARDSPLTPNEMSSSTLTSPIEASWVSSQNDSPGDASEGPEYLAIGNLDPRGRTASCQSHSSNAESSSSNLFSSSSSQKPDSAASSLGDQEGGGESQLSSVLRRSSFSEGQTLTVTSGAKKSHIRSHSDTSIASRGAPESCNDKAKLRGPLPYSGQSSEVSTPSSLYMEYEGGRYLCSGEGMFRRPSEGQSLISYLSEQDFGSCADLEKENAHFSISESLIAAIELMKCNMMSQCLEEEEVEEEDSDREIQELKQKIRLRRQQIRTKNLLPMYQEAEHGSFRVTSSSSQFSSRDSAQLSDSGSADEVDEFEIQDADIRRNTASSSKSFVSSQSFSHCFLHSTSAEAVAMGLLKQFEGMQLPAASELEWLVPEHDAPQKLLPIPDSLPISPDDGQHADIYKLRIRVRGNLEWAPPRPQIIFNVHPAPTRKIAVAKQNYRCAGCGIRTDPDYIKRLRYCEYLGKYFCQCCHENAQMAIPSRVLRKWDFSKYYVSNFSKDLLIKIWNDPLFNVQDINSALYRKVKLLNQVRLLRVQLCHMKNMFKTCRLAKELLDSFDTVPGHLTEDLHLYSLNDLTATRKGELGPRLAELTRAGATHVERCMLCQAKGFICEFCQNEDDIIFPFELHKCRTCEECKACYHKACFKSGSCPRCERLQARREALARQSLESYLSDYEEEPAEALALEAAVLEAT

endogenous VPS34 = biological target: T2, endogenous VPS34 (UniProt Q8NEB9 1-887); test: co-immunoprecipitation from 293T cells (FIG. 2I)
T2 construct: also called vacuolar protein sorting 34; PI3 Kinase Class III
T2 sequence (Q8NEB9 whole entry): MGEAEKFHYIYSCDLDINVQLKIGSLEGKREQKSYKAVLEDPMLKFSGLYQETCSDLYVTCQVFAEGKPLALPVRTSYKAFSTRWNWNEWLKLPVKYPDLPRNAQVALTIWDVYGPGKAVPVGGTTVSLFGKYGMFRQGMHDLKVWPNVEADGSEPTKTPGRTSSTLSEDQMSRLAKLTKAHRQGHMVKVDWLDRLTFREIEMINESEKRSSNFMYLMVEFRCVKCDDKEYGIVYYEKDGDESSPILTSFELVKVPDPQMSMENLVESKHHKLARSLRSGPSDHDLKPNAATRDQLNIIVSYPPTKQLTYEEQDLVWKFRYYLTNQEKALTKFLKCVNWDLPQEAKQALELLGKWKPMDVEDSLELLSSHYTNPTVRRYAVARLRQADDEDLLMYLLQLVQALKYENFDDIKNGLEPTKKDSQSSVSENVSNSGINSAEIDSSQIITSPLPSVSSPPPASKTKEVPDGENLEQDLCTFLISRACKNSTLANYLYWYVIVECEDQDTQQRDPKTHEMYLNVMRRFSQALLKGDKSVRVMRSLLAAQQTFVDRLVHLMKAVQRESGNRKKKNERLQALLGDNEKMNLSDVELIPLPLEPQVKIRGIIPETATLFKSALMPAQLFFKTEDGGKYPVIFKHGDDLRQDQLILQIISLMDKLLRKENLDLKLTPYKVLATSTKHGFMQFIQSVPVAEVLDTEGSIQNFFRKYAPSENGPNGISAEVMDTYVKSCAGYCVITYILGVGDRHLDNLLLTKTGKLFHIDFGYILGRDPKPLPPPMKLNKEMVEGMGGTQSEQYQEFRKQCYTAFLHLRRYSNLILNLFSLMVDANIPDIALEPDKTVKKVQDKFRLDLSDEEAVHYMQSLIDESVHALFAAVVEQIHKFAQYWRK

Flag-VPS34 previously ubiquitinated in vitro by UBE3C, Q8NEB9, sequence (Q8NEB9 whole entry, looked up): as the sequence (Q8NEB9 whole entry) above
Flag-VPS34, Q8NEB9, sequence (Q8NEB9 whole entry, looked up): as the sequence (Q8NEB9 whole entry) above

B1: purified TRABID (Boston Biochem; E-560) (protein)
chain: MSERGIKWACEYCTYENWPSAIKCTMCRAQRPSGTIITEDPFKSGSSDVGRDWDPSSTEGGSSPLICPDSSARPRVKSSYSMENANKWSCHMCTYLNWPRAIRCTQCLSQRRTRSPTESPQSSGSGSRPVAFSVDPCEEYNDRNKLNTRTQHWTCSVCTYENWAKAKRCVVCDHPRPNNIEAIELAETEEASSIINEQDRARWRGSCSSGNSQRRSPPATKRDSEVKMDFQRIELAGAVGSKEELEVDFKKLKQIKNRMKKTDWLFLNACVGVVEGDLAAIEAYKSSGGDIARQLTADEVRLLNRPSAFDVGYTLVHLAIRFQRQDMLAILLTEVSQQAAKCIPAMVCPELTEQIRREIAASLHQRKGDFACYFLTDLVTFTLPADIEDLPPTVQEKLFDEVLDRDVQKELEEESPIINWSLELATRLDSRLYALWNRTAGDCLLDSVLQATWGIYDKDSVLRKALHDSLHDCSHWFYTRWKDWESWYSQSFGLHFSLREEQWQEDWAFILSLASQPGASLEQTHIFVLAHILRRPIIVYGVKYYKSFRGETLGYTRFQGVYLPLLWEQSFCWKSPIALGYTRGHFSALVAMENDGYGNRGAGANLNTDDDVTITFLPLVDSERKLLHVHFLSAQELGNEEQQEKLLREWLDCCVTEGGVLVAMQKSSRRRNHPLVTQMVEKWLDRYRQIRPCTSLSDGEEDEDDEDE
in vitro deubiquitination assay, Western blot of total and K48 ubiquitin linkages on VPS34 (FIG. 2K) [1]: purified TRABID was capable of reducing the total and K48 ubiquitin linkages from this VPS34 in vitro

binding result (Rubicon): no binding
B2: Flag-TRABID (enzyme)
chain: MSERGIKWACEYCTYENWPSAIKCTMCRAQRPSGTIITEDPFKSGSSDVGRDWDPSSTEGGSSPLICPDSSARPRVKSSYSMENANKWSCHMCTYLNWPRAIRCTQCLSQRRTRSPTESPQSSGSGSRPVAFSVDPCEEYNDRNKLNTRTQHWTCSVCTYENWAKAKRCVVCDHPRPNNIEAIELAETEEASSIINEQDRARWRGSCSSGNSQRRSPPATKRDSEVKMDFQRIELAGAVGSKEELEVDFKKLKQIKNRMKKTDWLFLNACVGVVEGDLAAIEAYKSSGGDIARQLTADEVRLLNRPSAFDVGYTLVHLAIRFQRQDMLAILLTEVSQQAAKCIPAMVCPELTEQIRREIAASLHQRKGDFACYFLTDLVTFTLPADIEDLPPTVQEKLFDEVLDRDVQKELEEESPIINWSLELATRLDSRLYALWNRTAGDCLLDSVLQATWGIYDKDSVLRKALHDSLHDCSHWFYTRWKDWESWYSQSFGLHFSLREEQWQEDWAFILSLASQPGASLEQTHIFVLAHILRRPIIVYGVKYYKSFRGETLGYTRFQGVYLPLLWEQSFCWKSPIALGYTRGHFSALVAMENDGYGNRGAGANLNTDDDVTITFLPLVDSERKLLHVHFLSAQELGNEEQQEKLLREWLDCCVTEGGVLVAMQKSSRRRNHPLVTQMVEKWLDRYRQIRPCTSLSDGEEDEDDEDE
notes: not shown: Flag tag

binding result (endogenous VPS34): binds
B3: endogenous TRABID (enzyme)
chain: MSERGIKWACEYCTYENWPSAIKCTMCRAQRPSGTIITEDPFKSGSSDVGRDWDPSSTEGGSSPLICPDSSARPRVKSSYSMENANKWSCHMCTYLNWPRAIRCTQCLSQRRTRSPTESPQSSGSGSRPVAFSVDPCEEYNDRNKLNTRTQHWTCSVCTYENWAKAKRCVVCDHPRPNNIEAIELAETEEASSIINEQDRARWRGSCSSGNSQRRSPPATKRDSEVKMDFQRIELAGAVGSKEELEVDFKKLKQIKNRMKKTDWLFLNACVGVVEGDLAAIEAYKSSGGDIARQLTADEVRLLNRPSAFDVGYTLVHLAIRFQRQDMLAILLTEVSQQAAKCIPAMVCPELTEQIRREIAASLHQRKGDFACYFLTDLVTFTLPADIEDLPPTVQEKLFDEVLDRDVQKELEEESPIINWSLELATRLDSRLYALWNRTAGDCLLDSVLQATWGIYDKDSVLRKALHDSLHDCSHWFYTRWKDWESWYSQSFGLHFSLREEQWQEDWAFILSLASQPGASLEQTHIFVLAHILRRPIIVYGVKYYKSFRGETLGYTRFQGVYLPLLWEQSFCWKSPIALGYTRGHFSALVAMENDGYGNRGAGANLNTDDDVTITFLPLVDSERKLLHVHFLSAQELGNEEQQEKLLREWLDCCVTEGGVLVAMQKSSRRRNHPLVTQMVEKWLDRYRQIRPCTSLSDGEEDEDDEDE

B4: HA-UBE3C (protein)
chain: MFSFEGDFKTRPKVSLGGASRKEEKASLLHRTQEERRKREEERRRLKNAIIIQSFIRGYRDRKQQYSIQRSAFDRCATLSQSGGAFPIANGPNLTLLVRQLLFFYKQNEDSKRLIWLYQNLIKHSSLFVKQLDGSERLTCLFQIKRLMSLCCRLLQNCNDDSLNVALPMRMLEVFSSENTYLPVLQDASYVVSVIEQILHYMIHNGYYRSLYLLINSKLPSSIEYSDLSRVPIAKILLENVLKPLHFTYNSCPEGARQQVFTAFTEEFLAAPFTDQIFHFIIPALADAQTVFPYEPFLNALLLIESRCSRKSGGAPWLFYFVLTVGENYLGALSEEGLLVYLRVLQTFLSQLPVSPASASCHDSASDSEEESEEADKPSSPEDGRLSVSYITEECLKKLDTKQQTNTLLNLVWRDSASEEVFTTMASVCHTLMVQHRMMVPKVRLLYSLAFNARFLRHLWFLISSMSTRMITGSMVPLLQVISRGSPMSFEDSSRIIPLFYLFSSLFSHSLISIHDNEFFGDPIEVVGQRQSSMMPFTLEELIMLSRCLRDACLGIIKLAYPETKPEVREEYITAFQSIGVTTSSEMQQCIQMEQKRWIQLFKVITNLVKMLKSRDTRRNFCPPNHWLSEQEDIKADKVTQLYVPASRHVWRFRRMGRIGPLQSTLDVGLESPPLSVSEERQLAVLTELPFVVPFEERVKIFQRLIYADKQEVQGDGPFLDGINVTIRRNYIYEDAYDKLSPENEPDLKKRIRVHLLNAHGLDEAGIDGGGIFREFLNELLKSGFNPNQGFFKTTNEGLLYPNPAAQMLVGDSFARHYYFLGRMLGKALYENMLVELPFAGFFLSKLLGTSADVDIHHLASLDPEVYKNLLFLKSYEDDVEELGLNFTVVNNDLGEAQVVELKFGGKDIPVTSANRIAYIHLVADYRLNRQIRQHCLAFRQGLANVVSLEWLRMFDQQEIQVLISGAQVPISLEDLKSFTNYSGGYSADHPVIKVFWRVVEGFTDEEKRKLLKFVTSCSRPPLLGFKELYPAFCIHNGGSDLERLPTASTCMNLLKLPEFYDETLLRSKLLYAIECAAGFELS
in vitro ubiquitination assay, Western blot of polyubiquitin chain on VPS34 (FIG. 3I) (Flag-VPS34, Q8NEB9): baculovirally purified UBE3C could assemble polyubiquitin chain on VPS34 purified from 293T cells
